# Experimental data: the RNAGym collection of RNA variant scans (doi:10.1093/molbev/msab373)
# B1: Azoarcus group I ribozyme (parent)
# chain: GUGCCUUGCGCCGGGAAACCACGCAAGGGAUGGUGUCAAAUUCGGCGAAACCUAAGCGCCCGCCCGGGCGUAUGGCAACGCCGAGCCAAGCUUCGGCGCCUGCGCCGAUGAAGGUGUAGAGACUAGACGGCACCCACCUAAGGCAAACGCUAUGGUGAAGGCAUAGUCCAGGGAGUGGCGAAAGUCACACAAACCGG
# Variants of: B1
# Assay: reverse-splicing fitness (ratio to wild type); higher = more active; in vitro selection; Mg2+ level not given
# Method in brief: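 An in vitro group I ribozyme library with randomized positions was T7-transcribed and gel-purified. In triplicate, 10 pmol RNA in EPPS pH 7.5 was reacted with 50 pmoles of a 30-nt RNA substrate for 1 h at 37 °C across several added MgCl2 levels (1–48 mM), then stopped with EDTA. Products were reverse transcribed from a substrate-complementary primer, PCR-amplified and sequenced (HiSeq 4000). Fitness is a variant's read proportion after selection over that before, normalised to wild type.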
row,Variant,reverse-splicing fitness
1,C82A A111U A120G A145G C169A U176A,0.0222
2,C82A A111U A120C A145U C150U C169U U176A,0.0157
3,C82A A111U A120C A145U C150U C169U U176C,0.0137
4,C82A A111U A120C A145U C150U C169U U176G,0.00816
5,C82A A111U A120G A145C C150A C169G,0.00858
6,C82A A111U A120G A145C C150A C169U,0.00834
7,C82A A111U A120G A145C C150A C169A,0.00789
8,C82A A111U A120C C150A U176C,0.0239
9,C82A A111U A120C C150A U176A,0.0129
10,C82A A111U A120C C150A U176G,0.00881
11,C82A A111U A120G C150A C169A U176G,0.00665
12,C82A A111U A120G C150A C169A U176A,0.0214
13,C82A A111U A120G C150A C169A U176C,0.0237
14,C82A A111U A120C A145U C150U C169G U176A,0.016
15,C82A A111U A120C A145U C150U C169G U176G,0.00736
16,C82A A111U A120C A145U C150U C169G U176C,0.0244
17,C82A A111U A120G A145G C150U C169A U176A,0.0144
18,C82A A111U A120G A145G C150U C169A U176G,0.00668
19,C82A A111U A120G A145G C150U C169A U176C,0.0165
20,C82A A111U A120G A145C C150G C169A U176A,0.00838
21,C82A A111U A120G A145C C150G C169A U176C,0.00639

row,Variant,reverse-splicing fitness
1,C82A A111U A120G A145C C150G C169A U176G,0.00554
2,C82A A111U A120G A145G C150A U176G,0.00816
3,C82A A111U A120G A145G C150A U176C,0.0209
4,C82A A111U A120G A145G C150A U176A,0.0111
5,C82A A111U A120G C150G C169U U176C,0.0145
6,C82A A111U A120G C150G C169U U176A,0.01
7,C82A A111U A120G C150G C169U U176G,0.00618
8,C82A A111U A120G A145C C150G C169U U176A,0.0132
9,C82A A111U A120G A145C C150G C169U U176G,0.00584
10,C82A A111U A120G A145C C150G C169U U176C,0.0117
11,C82A A111U A120G C150A C169U U176A,0.021
12,C82A A111U A120G C150A C169U U176G,0.00816
13,C82A A111U A120G C150A C169U U176C,0.02
14,C82A A111U A120G,0.0152
15,C82A A111U A120G A145C C150A C169G U176A,0.0253
16,C82A A111U A120G A145C C150A C169G U176G,0.00564
17,C82A A111U A120G A145C C150A C169G U176C,0.0151
18,C82A A111U A120G A145U C169U U176A,0.0196
19,C82A A111U A120G A145U C169U U176G,0.0047
20,C82A A111U A120G A145U C169U U176C,0.0159
21,C82A A111U A120C C150G C169G,0.00832

row,Variant,reverse-splicing fitness
1,C82A A111U A120C C150G C169A,0.0101
2,C82A A111U A120C C150G C169U,0.0101
3,C82A A111U A120G C150U U176G,0.00825
4,C82A A111U A120G C150U U176A,0.0109
5,C82A A111U A120G C150U U176C,0.0178
6,C82A A111U A120C C169G,0.00957
7,C82A A111U A120C C169A,0.00982
8,C82A A111U A120C C169U,0.0143
9,C82A A111U A120G A145G C150G C169U,0.00901
10,C82A A111U A120G A145G C150G C169A,0.0092
11,C82A A111U A120G A145G C150G C169G,0.00797
12,C82A A111U A120G A145G C150U U176A,0.00963
13,C82A A111U A120G A145G C150U U176G,0.00803
14,C82A A111U A120G A145G C150U U176C,0.0178
15,C82A A111U A120G A145G,0.0152
16,C82A A111U A120G A145C,0.0126
17,C82A A111U A120G A145U,0.0153
18,C82A A111U A120G A145G C150U C169G U176A,0.0133
19,C82A A111U A120G A145G C150U C169G U176C,0.0178
20,C82A A111U A120G A145G C150U C169G U176G,0.00517
21,C82A A111U A120C A145U C150U C169A U176G,0.00837

row,Variant,reverse-splicing fitness
1,C82A A111U A120G A145C C150A,0.00759
2,C82A A111U A120G A145C C150U,0.00935
3,C82A A111U A120G A145C C150G,0.00667
4,C82A A111U A120G A145U C150G C169G,0.00685
5,C82A A111U A120G A145U C150G C169A,0.00884
6,C82A A111U A120G A145U C150G C169U,0.00845
7,C82A A111U A120G C150G U176C,0.00922
8,C82A A111U A120G C150G U176A,0.00663
9,C82A A111U A120G C150G U176G,0.00319
10,C82A A111U A120C C169G U176A,0.0231
11,C82A A111U A120C C169G U176C,0.0298
12,C82A A111U A120C C169G U176G,0.00706
13,C82A A111U A120C A145U C150U C169U,0.0116
14,C82A A111U A120C A145U C150U C169G,0.00959
15,C82A A111U A120C U176C,0.0279
16,C82A A111U A120C U176A,0.0152
17,C82A A111U A120C U176G,0.00616
18,C82A A111U A120G A145G C150G C169U U176A,0.0121
19,C82A A111U A120G A145G C150G C169U U176G,0.00707
20,C82A A111U A120G A145G C150G C169U U176C,0.013
21,C82A A111U A120G A145U C150A C169A,0.00942
